Test [1] addresses IgK leader-ALFA Tag-RR Zip-Myc Tag-PDGFRβ TM-sfGFP. The test can be described thus: flow.
For test [2] the target is unchanged. The test can be described thus: flow cytometry cell binding. A general note: Flow cytometry measures light scatter and fluorescence of single cells or particles in a stream.

This passage reports Kd results from patent US20250152627A1 (published 2025).

B1: StcE ΔX409-35 aa Linker-EE Zip (enzyme)
chain: ADNNSAIYFNTSQPINDLQGSLAAEVKFAQSQILPAHPKEGDSQPHLTSLRKSLLLVRPVKADDKTPVQVEARDDNNKILGTLTLYPPSSLPDTIYHLDGVPEGGIDFTPHNGTKKIINTVAEVNKLSDASGSSIHSHLTNNALVEIHTANGRWVRDIYLPQGPDLEGKMVRFVSSAGYSSTVFYGDRKVTLSVGNTLLFKYVNGQWFRSGELENNRITYAQHIWSAELPAHWIVPGLNLVIKQGNLSGRLNDIKIGAPGELLLHTIDIGMLTTPRDRFDFAKDKEAHREYFQTIPVSRMIVNNYAPLHLKEVMLPTGELLTDMDPGNGGWHSGTMRQRIGKELVSHGIDNANYGLNSTAGLGENSHPYVVAQLAAHNSRGNYANGIQVHGGSGGGGIVTLDSTLGNEFSHEVGHNYGLGHYVDGFKGSVHRSAENNNSTWGWDGDKKRFIPNFYPSQTNEKSCLNNQCQEPFDGHKFGFDAMAGGSPFSAANRFTMYTPNSSAIIQRFFENKAVFDSRSSTGFSKWNADTQEMEPYEHTIDRAEQITASVNELSESKMAELMAEYAVVKVHMWNGNWTRNIYIPTASADNRGSILTINHEAGYNSYLFINGDEKVVSQGYKKSFVSDGQFWKERDVVDTREARKPEQFGVPVTTLVGYYDPEGTLSSYIYPAMYGAYGFTYSDDSQNLSDNDCQLQVDTKEGQLRFRLANHRANNTVMNKFHINVPTESQPTQATLVCNNKILDTKSLTPAPEGLTYTVNGGGGSGGGGSGGGGSGGGGSGGGGSGGGGSGGGGSMDPDLEIEAAFLERENTALETRVAELRQRVQRLRNRVSQYRTRYGPLGGGK
By Kd is commonly meant the equilibrium constant for the complex coming apart. Read a low Kd as tighter binding. In test [1], B1 yielded a Kd of around 3.09 nM.

B2: AM0627-35 aa Linker-EE Zip (enzyme)
chain: ANTPEHIGNDLKLFKDSSCTSLKPDVKNTSAFQSDAMKELATKILAGHYKPDYLYAEYRALPSPRQTGKNLRIGDGFSKYDNMTGVYLEKGRHVVLVGKTEGQEISLLLPNLMRKPAEGVQPTKDPNGWGLHKKQIPLKEGINIIDVETPANAYISYFTEDAGKAPKIPVHFVTGKANGYFDTTRGDTNKDWVRLLDQAVSPIMDARGKYIQVAYPVEFLKKFTKDRGTELINAYDKLIGIQYQLMGLDKYGKIPENRVLARVNFNYYMFRDGDGVAYLGNDGTMRMVTDPENVLKGDACWGFSHEVGHVMQMRPMTWGGMTEVSNNIFSLQAAAKTGNESRLKRQGSYDKARKEIIEGEIAYLQSKDVFNKLVPLWQLHLYFTKNGHPDFYPDVMEYLRNNAGNYGGNDTVKYQFEFVKACCDVTKTDLTDFFEKWGFFKPGKFHIGDYAQYDFNVTPEMVEETKKWIAGKGYPKPETDITELSEGGGGSGGGGSGGGGSGGGGSGGGGSGGGGSGGGGSMDPDLEIEAAFLERENTALETRVAELRQRVQRLRNRVSQYRTRYGPLGGGK
Molecule B2 yielded a Kd in test [2] of around 0.45 nM.

B3: BT4244-35 aa Linker-EE Zip (enzyme)
chain: FSISEEYLIQNLDKSSTSVQIPINTSMELAQWSVSYEANWLQCSKQKTAAEGTFLRITVNENTGETKRTANIKVTSTTATYTITVNQYAKGEVIVEGDIKVTPTGGKASEHQEGQDIENTYDGKFSTDGAAPFHTPWGQSAKFPVTLEYYFKGDTEIDYLIYYTRSGNGNFGKVKVYTTTNPDRSDYTLQGEYDFKEQNAPSKVSFSEGIKATGIKFEVLSGLGDFVSCDEMEFYKTNTDKTLDKQLLTVFTDITCTEIKNNVTNEQIQALPDYFVRIAEAVRDNTYDKWEKEFRIRSYEPYSNIAEWADKLMTKKYSDLDNPTGISVKAGDDIIVLVGDTYGQNISMQCIWETGTEYKQTASSGDVYMLNPGVNKLTMKGEGQLFVMYNTELTSNTAKPIKIHIPLGSGTVNGFFDLKEHKTDEKYAELLKKSTHKYFCIRGEKIMFYFHRNKLLEYVPNNILSAIHLWDNIVGWQQELMGIDDVRPSQVNNHLFAISPEGSYMWASDYQIGFVYTYLGNILLEDNVMAAEDNAWGPAHEIGHVHQAAINWASSTESSNNLFSNFIIYKLGKYKSRGNGLGSVATARYANGQAWYNMGDATHQNEDTETHMRMNWQLWIYYHRCEYKTDFWQTLFKLMREVNMTEGEDPGKKQLEFAKMASKAANQNLTDFFEMWGFFEPVNTTIEQYGTYKYYVSDAMIREAKEYMAQFPAPKHAFQYIEDRKKSEFPSNDYRYSAVGDVGYYTQFKENQKITKAITAELAGRKVSIQNGDEAVAFELRENDENGKLLYFSTFTTFEIPSSILMGGGGSGGGGSGGGGSGGGGSGGGGSGGGGSGGGGSMDPDLEIEAAFLERENTALETRVAELRQRVQRLRNRVSQYRTRYGPLGGGK
In turn, B3 registered a Kd in test [2] of around 2.54 nM.
